# Test results published in publication PMC9482650, “Quantitative fragmentomics allow affinity mapping of interactomes” (Nature Communications, 2022).
# T1: APBA2_1, Q99767
# T1 sequence (Q99767 563-664, limits assumed, looked up): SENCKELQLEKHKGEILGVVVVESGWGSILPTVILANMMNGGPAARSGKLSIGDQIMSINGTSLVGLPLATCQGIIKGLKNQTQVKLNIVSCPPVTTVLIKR
# T2: APBA3_1, O96018
# T2 sequence (O96018 389-490, limits assumed, looked up): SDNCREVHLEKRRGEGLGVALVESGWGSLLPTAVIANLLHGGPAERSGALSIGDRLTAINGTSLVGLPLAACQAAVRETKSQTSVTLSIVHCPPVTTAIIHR
# T3: ARHGAP21, Q5T5U3
# T3 sequence (Q5T5U3 45-169, limits assumed, looked up): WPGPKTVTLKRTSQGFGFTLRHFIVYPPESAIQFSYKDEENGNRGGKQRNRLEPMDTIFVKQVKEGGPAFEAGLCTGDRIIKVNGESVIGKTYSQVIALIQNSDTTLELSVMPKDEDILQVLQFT
# T4: DLG3_1, Q92796
# T4 sequence (Q92796 125-227, limits assumed, looked up): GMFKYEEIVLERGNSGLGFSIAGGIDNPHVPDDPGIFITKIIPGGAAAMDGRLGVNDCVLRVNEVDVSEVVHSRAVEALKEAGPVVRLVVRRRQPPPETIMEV
# T5: DLG3_2, Q92796
# T5 sequence (Q92796 221-321, limits assumed, looked up): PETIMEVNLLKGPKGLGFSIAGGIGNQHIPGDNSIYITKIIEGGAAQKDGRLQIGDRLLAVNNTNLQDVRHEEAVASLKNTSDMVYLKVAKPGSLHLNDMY
# T6: DVL3, Q92997
# T6 sequence (Q92997 244-331, limits assumed, looked up): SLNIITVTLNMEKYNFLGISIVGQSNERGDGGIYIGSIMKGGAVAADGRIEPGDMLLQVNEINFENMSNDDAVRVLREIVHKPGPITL
# T7: FRMPD1, Q5SYB0
# T7 sequence (Q5SYB0 52-145, limits assumed, looked up): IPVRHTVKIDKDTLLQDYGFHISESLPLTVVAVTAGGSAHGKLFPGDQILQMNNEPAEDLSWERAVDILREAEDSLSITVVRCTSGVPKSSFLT
# T8: GRIP1_5, Q9Y3R0
# T8 sequence (Q9Y3R0 568-668, limits assumed, looked up): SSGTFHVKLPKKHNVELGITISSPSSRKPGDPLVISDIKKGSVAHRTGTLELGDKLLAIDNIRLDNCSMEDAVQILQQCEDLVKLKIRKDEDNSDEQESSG
# T9: PDZD7_3, Q9H5P4
# T9 sequence (Q9H5P4 857-944, limits assumed, looked up): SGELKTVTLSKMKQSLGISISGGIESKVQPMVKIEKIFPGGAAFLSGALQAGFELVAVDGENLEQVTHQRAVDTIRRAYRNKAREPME
# T10: SHANK1, Q9Y566
# T10 sequence (Q9Y566 658-767, limits assumed, looked up): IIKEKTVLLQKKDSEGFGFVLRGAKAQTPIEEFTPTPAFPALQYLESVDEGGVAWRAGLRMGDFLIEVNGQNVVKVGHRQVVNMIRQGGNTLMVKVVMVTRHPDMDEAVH
# T11: SNTB1, Q13884
# T11 sequence (Q13884 107-205, limits assumed, looked up): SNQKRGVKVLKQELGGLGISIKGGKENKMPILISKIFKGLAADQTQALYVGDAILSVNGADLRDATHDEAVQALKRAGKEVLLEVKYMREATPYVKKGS
# T12: SYNJ2BP, P57105
# T12 sequence (P57105 8-110, limits assumed, looked up): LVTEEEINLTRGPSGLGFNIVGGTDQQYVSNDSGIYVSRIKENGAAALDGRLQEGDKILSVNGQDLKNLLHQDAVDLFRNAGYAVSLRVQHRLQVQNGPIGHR
# T13: TJP3_3, O95049
# T13 sequence (O95049 375-456, limits assumed, looked up): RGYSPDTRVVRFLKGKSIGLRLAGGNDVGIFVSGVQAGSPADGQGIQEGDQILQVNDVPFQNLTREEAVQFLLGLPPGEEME
# Columns and labels:
# Assay in all cases: holdup assay
# Design in all cases: key: below the threshold = too weak to quantify, mostly under pKd 3.1 to 4
# Conditions in all cases: plain residues with an end cap or a label only (N-terminal biotin on a linker: ado-ado)
# APBA2_1, Q99767 = target: T1, APBA2_1, Q99767
# APBA3_1, O96018 = target: T2, APBA3_1, O96018
# ARHGAP21, Q5T5U3 = target: T3, ARHGAP21, Q5T5U3
# DLG1_2, Q12959 = target: DLG1_2, Q12959
# DLG3_1, Q92796 = target: T4, DLG3_1, Q92796
# DLG3_2, Q92796 = target: T5, DLG3_2, Q92796
# DVL3, Q92997 = target: T6, DVL3, Q92997
# FRMPD1, Q5SYB0 = target: T7, FRMPD1, Q5SYB0
# GRID2IP_2, A4D2P6 = target: GRID2IP_2, A4D2P6
# GRIP1_5, Q9Y3R0 = target: T8, GRIP1_5, Q9Y3R0
# GRIP2_4, Q9C0E4 = target: GRIP2_4, Q9C0E4
# HTRA1, Q92743 = target: HTRA1, Q92743
# Inadl_4, Q8NI35 = target: Inadl_4, Q8NI35
# Inadl_6, Q8NI35 = target: Inadl_6, Q8NI35
# MAGI2_5, Q86UL8 = target: MAGI2_5, Q86UL8
# MAGI2_6, Q86UL8 = target: MAGI2_6, Q86UL8
# MAST1, Q9Y2H9 = target: MAST1, Q9Y2H9
# PDLIM1, O00151 = target: PDLIM1, O00151
# PDZD7_3, Q9H5P4 = target: T9, PDZD7_3, Q9H5P4
# SCRIB_2, Q14160 = target: SCRIB_2, Q14160
# SHANK1, Q9Y566 = target: T10, SHANK1, Q9Y566
# SNTB1, Q13884 = target: T11, SNTB1, Q13884
# SYNJ2BP, P57105 = target: T12, SYNJ2BP, P57105
# TJP3_3, O95049 = target: T13, TJP3_3, O95049
# Sequence of MAST1, Q9Y2H9 (Q9Y2H9 962-1065): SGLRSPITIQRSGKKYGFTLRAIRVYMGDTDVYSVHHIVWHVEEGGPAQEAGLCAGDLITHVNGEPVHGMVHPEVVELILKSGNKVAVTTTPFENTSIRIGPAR
# Sequence of PDLIM1, O00151 (O00151 1-87): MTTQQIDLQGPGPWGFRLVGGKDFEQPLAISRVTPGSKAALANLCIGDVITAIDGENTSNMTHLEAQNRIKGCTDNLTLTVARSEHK
# Sequence of SCRIB_2, Q14160 (Q14160 857-960): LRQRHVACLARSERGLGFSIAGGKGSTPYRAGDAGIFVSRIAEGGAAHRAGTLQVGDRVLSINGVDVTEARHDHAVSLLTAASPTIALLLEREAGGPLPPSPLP
# Sequence of MAGI2_5, Q86UL8 (Q86UL8 915-1017): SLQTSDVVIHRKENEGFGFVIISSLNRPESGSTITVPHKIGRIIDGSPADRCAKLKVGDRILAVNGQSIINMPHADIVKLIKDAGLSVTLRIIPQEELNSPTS
# Sequence of Inadl_4, Q8NI35 (Q8NI35 547-651): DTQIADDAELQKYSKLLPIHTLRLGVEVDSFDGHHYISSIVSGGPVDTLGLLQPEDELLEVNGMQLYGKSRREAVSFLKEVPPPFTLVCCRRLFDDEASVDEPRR
# Sequence of GRIP2_4, Q9C0E4 (Q9C0E4 446-548): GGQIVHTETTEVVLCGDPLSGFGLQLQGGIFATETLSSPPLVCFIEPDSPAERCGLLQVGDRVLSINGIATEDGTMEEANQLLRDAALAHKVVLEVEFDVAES
# Sequence of GRID2IP_2, A4D2P6 (A4D2P6 272-370): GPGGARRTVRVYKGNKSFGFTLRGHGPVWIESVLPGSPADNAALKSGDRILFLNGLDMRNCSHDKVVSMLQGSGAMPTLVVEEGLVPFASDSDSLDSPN
# Sequence of Inadl_6, Q8NI35 (Q8NI35 1058-1167): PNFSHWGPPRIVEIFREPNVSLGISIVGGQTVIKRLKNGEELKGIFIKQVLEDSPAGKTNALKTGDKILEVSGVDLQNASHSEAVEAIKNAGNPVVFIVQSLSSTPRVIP
# Sequence of DLG1_2, Q12959 (Q12959 314-412): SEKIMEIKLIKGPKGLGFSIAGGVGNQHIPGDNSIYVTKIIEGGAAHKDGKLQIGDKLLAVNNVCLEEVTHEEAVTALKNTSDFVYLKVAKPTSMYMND
# Sequence of HTRA1, Q92743 (Q92743 360-477): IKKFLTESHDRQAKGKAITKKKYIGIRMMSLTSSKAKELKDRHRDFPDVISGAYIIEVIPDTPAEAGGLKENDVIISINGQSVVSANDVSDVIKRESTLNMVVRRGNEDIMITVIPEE
# Sequence of MAGI2_6, Q86UL8 (Q86UL8 1141-1229): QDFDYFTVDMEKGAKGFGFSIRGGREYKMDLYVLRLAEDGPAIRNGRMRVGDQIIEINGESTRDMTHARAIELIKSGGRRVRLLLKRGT
Binder,"pKd (APBA2_1, Q99767)","pKd (APBA3_1, O96018)","pKd (ARHGAP21, Q5T5U3)","pKd (DLG1_2, Q12959)","pKd (DLG3_1, Q92796)","pKd (DLG3_2, Q92796)","pKd (DVL3, Q92997)","pKd (FRMPD1, Q5SYB0)","pKd (GRID2IP_2, A4D2P6)","pKd (GRIP1_5, Q9Y3R0)","pKd (GRIP2_4, Q9C0E4)","pKd (HTRA1, Q92743)","pKd (Inadl_4, Q8NI35)","pKd (Inadl_6, Q8NI35)","pKd (MAGI2_5, Q86UL8)","pKd (MAGI2_6, Q86UL8)","pKd (MAST1, Q9Y2H9)","pKd (PDLIM1, O00151)","pKd (PDZD7_3, Q9H5P4)","pKd (SCRIB_2, Q14160)",further results
"VISSDDLTEL [CAPN6, Q9Y6Q1]",below the threshold,below the threshold,below the threshold,below the threshold,below the threshold,3.99,below the threshold,below the threshold,4.34,below the threshold,below the threshold,4.55,below the threshold,below the threshold,3.53,3.59,4.99,below the threshold,3.87,below the threshold,"pKd (SHANK1, Q9Y566): 4.84; pKd (SNTB1, Q13884): below the threshold; pKd (SYNJ2BP, P57105): below the threshold; pKd (TJP3_3, O95049): below the threshold"
"TFSRRPKTRV [CD226, Q15762]",3.55,below the threshold,4.06,below the threshold,below the threshold,below the threshold,below the threshold,below the threshold,4.16,below the threshold,3.54,below the threshold,below the threshold,below the threshold,below the threshold,below the threshold,4.24,below the threshold,4.5,3.54,"pKd (SHANK1, Q9Y566): 4.06; pKd (SNTB1, Q13884): below the threshold; pKd (SYNJ2BP, P57105): below the threshold; pKd (TJP3_3, O95049): below the threshold"

# Continued, in another order:
"pKd (APBA2_1, Q99767)","pKd (APBA3_1, O96018)","pKd (ARHGAP21, Q5T5U3)","pKd (DLG1_2, Q12959)","pKd (DLG3_1, Q92796)","pKd (DLG3_2, Q92796)","pKd (DVL3, Q92997)","pKd (FRMPD1, Q5SYB0)","pKd (GRID2IP_2, A4D2P6)","pKd (GRIP1_5, Q9Y3R0)","pKd (GRIP2_4, Q9C0E4)","pKd (HTRA1, Q92743)","pKd (Inadl_4, Q8NI35)","pKd (Inadl_6, Q8NI35)","pKd (MAGI2_5, Q86UL8)","pKd (MAGI2_6, Q86UL8)","pKd (MAST1, Q9Y2H9)","pKd (PDLIM1, O00151)","pKd (PDZD7_3, Q9H5P4)","pKd (SCRIB_2, Q14160)",Binder,further results
below the threshold,below the threshold,below the threshold,below the threshold,below the threshold,below the threshold,below the threshold,below the threshold,3.86,below the threshold,below the threshold,below the threshold,below the threshold,3.48,3.59,below the threshold,4.85,below the threshold,4.29,below the threshold,"AKADAQESRL [PLCB2, Q00722]","pKd (SHANK1, Q9Y566): 4.33; pKd (SNTB1, Q13884): 4.43; pKd (SYNJ2BP, P57105): 3.97; pKd (TJP3_3, O95049): below the threshold"
below the threshold,below the threshold,3.93,5.09,4.37,4.64,3.61,below the threshold,3.79,below the threshold,below the threshold,4.34,below the threshold,below the threshold,below the threshold,4.03,4.32,below the threshold,4.53,4.01,"TNSKQGETTV [FZD1, Q9UP38]","pKd (SHANK1, Q9Y566): 3.57; pKd (SNTB1, Q13884): 4.72; pKd (SYNJ2BP, P57105): 4.7; pKd (TJP3_3, O95049): below the threshold"
below the threshold,below the threshold,4.01,5.53,4.48,5.26,below the threshold,below the threshold,3.8,below the threshold,below the threshold,3.67,3.57,below the threshold,3.75,below the threshold,4.48,below the threshold,4.53,4.15,"THHRKIHTRV [ZNF599, Q96NL3]","pKd (SHANK1, Q9Y566): 4.01; pKd (SNTB1, Q13884): 4.36; pKd (SYNJ2BP, P57105): 4.32; pKd (TJP3_3, O95049): below the threshold"
below the threshold,below the threshold,below the threshold,below the threshold,below the threshold,4.19,below the threshold,below the threshold,below the threshold,below the threshold,below the threshold,4,below the threshold,below the threshold,below the threshold,below the threshold,4.15,below the threshold,below the threshold,below the threshold,"RGKNRRQSIF [CDK18, Q07002]","pKd (SHANK1, Q9Y566): below the threshold; pKd (SNTB1, Q13884): below the threshold; pKd (SYNJ2BP, P57105): below the threshold; pKd (TJP3_3, O95049): below the threshold"
